# Source: patent US20230392126A1, “TISSUE ORGANOIDS” (priority 2016, published 2023)
# B1: hBChE: modified human butyrylcholinesterase (E30-6, SEQ ID NO: 41), cocaine hydrolase, expressed from engineered epidermal cells / skin grafts (protein)
# chain: MHSKVTIICIRFLFWFLLLCMLIGKSHTEDDIIIATKNGKVRGMNLTVFGGTVTAFLGIPYAQPPLGRLRFKKPQSLTKWSDIWNATKYANSCCQNIDQSFPGFHGSEMWNPNTDLSEDCLYLNVWIPAPKPKNATVLIWIYGGGFQTGTSSLHVYDGKFLARVERVIVVSMNYRVGALGFLALPGNPEAPGNMGLFDQQLALQWVQKNIAAFGGNPKSVTLFGESSGAASVSLHLLSPGSHSLFTRAILQSGSANAPWAVTSLYEARNRTLNLAKLTGCSRENETEIIKCLRNKDPQEILLNEAFVVPYGTALGVNFGPTVDGDFLTDMPDILLELGQFKKTQILVGVNKDEGTWFLVGGAPGFSKDNNSIITRKEFQEGLKIFFPGVSEFGKESILFHYTDWVDDQRPENYREALGDVVGDYNFICPALEFTKKFSEWGNNAFFYYFEHRSSKLPWPEWMGVMHGYEIEFVFGLPLERRDNYTKAEEILSRSIVKRWANFAKYGNPNETQNNSTSWPVFKSTEQKYLTLNTESTRIMTKLRAQQCRFWTSFFPKVLEMTGNIDEAEWEWKAGFHRWNNYMMDWKNQFNDYTSKKESCVGL
# modifications: Human mutant BChE
# System: human epidermal keratinocytes
# Experiment: Cell proliferation and differentiation of engineered human epidermal cells in vitro
# Assay type: cell-based
# Experimental: Primary human neonatal epidermal keratinocytes were obtained from Thermo Fischer® (C0015C), and cultured with Epilife® medium (Thermo Fischer, M-EPICF-500) with manufacturer's recommended procedures. Calcium shift was performed to induce differentiation of primary keratinocytes by increasing the calcium concentration in culture media to 1.5 mM.
# Propidium iodide (PI) staining followed by flow cytometry were used to determine the effect of cell cycle profiles. Mouse and human epidermal cells were cultured in two 6 cm cell culture dish for 24 hours, respectively. Cells were trypsinized, and 1×10^5 cells from each dish were collected, followed by one PBS wash. […] After staining, the cells were analyzed immediately using flow cytometer BD FACSCanto™ II (BD Biosciences, San Jose, CA) with an excitation wavelength at 488 nm and emission at 585 nm. DNA content and histograms of cell cycle distribution were analyzed using FlowJo™ software, version 10 (FLOWJO LLC, OR).
# Western blotting was performed as described previously (Blanpain et al.). […] Visualization and quantification was carried out with the LI-COR Odyssey® scanner and software (LI-COR Biosciences).
# Propidium iodide (PI) staining followed by flow cytometry were used to determine the effect of cell cycle profiles. […] DNA content and histograms of cell cycle distribution were analyzed using FlowJo™ software, version 10 (FLOWJO LLC, OR). […]
molecule,measurement,value
B1,effect of expression on cell proliferation / differentiation in vitro,did not significantly change cell proliferation
